Data reported in publication PMC11141937 (2024).

Columns and labels:
[1] = molecular target: T1, SARS-CoV-2 WT (WH01) S protein ectodomain (SARS-CoV-2, UniProt P0DTC2 14-1213); test: BLI
[2] = molecular target: SARS-CoV-2 WT (WH01) S protein on S-293T cells (SARS-CoV-2, UniProt P0DTC2); test: FACS
[3] = molecular target: RBD of SARS-CoV-2 WT S protein (SARS-CoV-2, UniProt P0DTC2); test: ELISA
[4] = molecular target: S1 of SARS-CoV-2 WT S protein (SARS-CoV-2); test: ELISA
[5] = molecular target: T1, SARS-CoV-2 WT (WH01) S protein …; test: ELISA
WT S2 = test: ELISA
WT NTD = test: ELISA

B1: O5C2 mAb (antibody, V domains shown)
VH: EVQLVESGGGLIQPGGSLRLSCAASGIIVSRNYMSWVRQAPGKGLEWVSILYAGGSSFYAEPVQGRFTVSRDNSKNTLFLEMNSLRVEDTAVYYCARDLQWGIDIWGQGAMVTVSS
VL: DIQMTQTPPSLSASVGDRVSISCRASQSTGSWLAWYQQKPGKAPKLLIYKTSSLESGVPSRFSGSGSGTEFTLTISSLQPDDVATYYCQHYDTYSSTFGQGTKVEIK
Kd [1]: 0.865 nM | EC50 [2]: 0.177 nM | EC50 [3]: 0.018 nM | EC50 [4]: 0.017 nM | EC50 [5]: 0.024 nM | EC50 (WT S2): > 1000 nM | EC50 (WT NTD): > 1000 nM
